According to the RNAGym collection of RNA variant scans (doi:10.7554/elife.80360):

B1: Twister Ribozyme (parent)
chain: AACACUGCCAAUGCCGGUCCCAAGCCCGGAUAAAAGUGGAGGGGGCGG

Variants of: B1
Test: self-cleavage, relative activity (ratio to wild type); higher = more cleavage; co-transcriptional

In order of falling self-cleavage:
1. C14U C19U  1.14
2. C14U  1.1
3. C14U G29C  1.09
4. C14A C19U  1.07
5. C14A G48C  1.04
6. C14U A33C  0.97
7. C14U C20U  0.942
8. C14U U31G  0.941
9. C14U A33G  0.927
10. C14A  0.923
11. C14U U31A  0.92
12. C14A A32C  0.914
13. C14U C25U  0.909
14. C14U G38U  0.904
15. C14U G16A  0.871
16. C14A C46G  0.87
17. C14A A32U  0.848
18. C14A G44A  0.838
19. G13U G44A  0.821
20. C14A G45A  0.801
21. C14A U31A  0.796
22. C15A G44A  0.79
23. C14U G36A  0.789
24. C14A G44C  0.772
25. G13C U31A  0.767
26. C15A G28C  0.757
27. C14A G47A  0.749
28. C15A G28U  0.736
29. C14A U37A  0.711
30. G13C A22C  0.71
31. G13U A33G  0.68
32. G13U U31G  0.667
33. C15A G44U  0.661
34. C14A G47U  0.66
35. C14G C15A  0.644
36. C15A G29U  0.607
37. G13U G29U  0.588
38. C14U C27A  0.586
39. G13U C46U  0.586
40. G13C U31G  0.585
41. C14A G45C  0.58
42. C15A G44C  0.57
43. G13U G29C  0.555
44. C15A A33C  0.538
45. C15A G45U  0.528
46. G13C A30G  0.502
47. G13C G29C  0.477
48. G13C G29U  0.46
49. G13U U31A  0.43
50. C14U C19A  0.429
51. G13U G44U  0.428
52. C14A G42A  0.417
53. G13C G29A  0.411
54. C14A G39A  0.409
55. G13U G28C  0.405
56. G13U A33U  0.403
57. C15A G47A  0.39
58. C14A G42U  0.368
59. C14A C19A  0.366
60. C14A G42C  0.363
61. G13U C46A  0.361
62. C14U G16C  0.36
63. C14A C19G  0.359
64. G13U G48U  0.357
65. G13U C46G  0.328
66. G13U G48A  0.309
67. C14A G41C  0.294
68. C15A A34U  0.273
69. C14U C25A  0.27
70. C14U A40C  0.256
71. G13U G16U  0.253
72. C14G A35C  0.244
73. C14G C15G  0.243
74. G13U G47A  0.228
75. G13U G45U  0.212
76. G13U C27U  0.212
77. G13U A34G  0.211
78. G13C G45A  0.209
79. G13U G45C  0.194
80. C15A C25G  0.192
81. C14U A40U  0.191
82. C14A A40C  0.189
83. C14G G29A  0.182
84. G13U G42C  0.181
85. G13C G47C  0.179
86. G13U G47C  0.179
87. C14G  0.171
88. C14G G48C  0.163
89. C14G G28U  0.157
90. C15A G29C  0.156
91. C15A G42A  0.156
92. G13C G47A  0.154
93. C14U C20A  0.154
94. G13U A40G  0.152
95. G13U G41C  0.149
96. G13C G47U  0.145
97. C14G G16C  0.143
98. C15A G36U  0.142
99. G13U G42A  0.139
100. G13C G45C  0.138
101. C14G A35G  0.138
102. C14A A40G  0.136
103. G13U U37C  0.133
104. G13U C25U  0.129
105. C14A C21A  0.128
106. G13U A35G  0.127
107. C14G G38A  0.127
108. G13C C19G  0.125
109. G13C U37G  0.125
110. C15G A35C  0.123
111. G13C U37C  0.116
112. G13U G42U  0.114
113. G13U G39A  0.113
114. C14G G45A  0.113
115. C15G A32C  0.112
116. G13C A40U  0.109
117. G13C A32U  0.108
118. C14G C20A  0.104
119. C14G G41A  0.103
120. C14G G45U  0.101
121. C14A C21G  0.1
122. C14G G16A  0.0993
123. C14G U37C  0.0984
124. G13U C27G  0.0965
125. G13C A40G  0.0963
126. G13U C27A  0.0958
127. C14G G42C  0.095
128. C14G G48A  0.0949
129. C14A G16C  0.0948
130. G13U G16C  0.094
131. C15A G36C  0.0919
132. C15G C20G  0.0898
133. C15G C19U  0.0895
134. C14G U37A  0.0885
135. C15G A35G  0.0859
136. C15A G24U  0.0837
137. G13C C21G  0.0833
138. G13C G17A  0.0829
139. G13U A23U  0.0818
140. C14G G39U  0.0771
141. C14G C26A  0.0764
142. C15A U37G  0.0756
143. C14G A40G  0.0712
144. G13C C19U  0.0706
145. G13C G24U  0.0687
146. C15G C20U  0.0686
147. G13C U18A  0.067
148. C14G A40C  0.067
149. C14G C26G  0.0666
150. G13U C25A  0.0642
151. C15G A22G  0.0636
152. G13C U18G  0.0609
153. G13C C21A  0.0599
154. C14G G45C  0.0594
155. C14G A40U  0.0589
156. C15G A22U  0.0572
157. G13C C21U  0.0571
158. G13U A23C  0.0557
159. C14G G39A  0.0534
160. C14G G24U  0.0521
161. C14G C21A  0.0482
162. G13U C19G  0.0472
163. C14G G39C  0.0468
164. G13C A23U  0.0457
165. C15A A23C  0.0415
166. C14G C21G  0.0402
167. C14G G24A  0.0254
